Measurements from patent publication US20220332804A1 (CSL INNOVATION, published 2022).

How the values were obtained:
Experiment in all cases: SPR, antibody captured, C2 as analyte;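 also: biacore at 37 °C, anti-C2 mAbs held by immobilised goat anti-human IgG, C2 alanine or serine mutants injected, double-referenced sensorgrams fitted to a 1:1 kinetic or steady-state model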
human C2 S469A = target: T1, human C2 S469A (human, UniProt P06681 21-752)
T1 sequence: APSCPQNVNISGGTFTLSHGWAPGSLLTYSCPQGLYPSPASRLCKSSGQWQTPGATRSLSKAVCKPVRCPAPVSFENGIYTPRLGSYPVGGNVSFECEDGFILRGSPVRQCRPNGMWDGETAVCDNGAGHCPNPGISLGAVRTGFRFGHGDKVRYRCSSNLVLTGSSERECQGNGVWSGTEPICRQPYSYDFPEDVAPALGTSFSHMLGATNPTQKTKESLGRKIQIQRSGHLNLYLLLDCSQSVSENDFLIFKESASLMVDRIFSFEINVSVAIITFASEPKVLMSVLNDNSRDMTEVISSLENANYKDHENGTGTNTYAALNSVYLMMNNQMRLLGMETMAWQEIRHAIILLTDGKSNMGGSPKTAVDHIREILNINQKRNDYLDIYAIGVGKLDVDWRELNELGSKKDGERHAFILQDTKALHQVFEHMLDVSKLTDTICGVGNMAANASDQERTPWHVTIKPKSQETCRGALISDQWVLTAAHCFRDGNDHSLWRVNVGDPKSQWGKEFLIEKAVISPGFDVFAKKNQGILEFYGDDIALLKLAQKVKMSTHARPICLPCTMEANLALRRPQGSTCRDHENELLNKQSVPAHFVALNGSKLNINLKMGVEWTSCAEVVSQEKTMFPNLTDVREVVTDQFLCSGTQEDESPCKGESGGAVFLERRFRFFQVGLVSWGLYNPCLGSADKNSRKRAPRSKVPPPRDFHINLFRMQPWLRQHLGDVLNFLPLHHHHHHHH

human C2 V465A = target: T2, human C2 V465A (human, UniProt P06681 21-752)
T2 sequence: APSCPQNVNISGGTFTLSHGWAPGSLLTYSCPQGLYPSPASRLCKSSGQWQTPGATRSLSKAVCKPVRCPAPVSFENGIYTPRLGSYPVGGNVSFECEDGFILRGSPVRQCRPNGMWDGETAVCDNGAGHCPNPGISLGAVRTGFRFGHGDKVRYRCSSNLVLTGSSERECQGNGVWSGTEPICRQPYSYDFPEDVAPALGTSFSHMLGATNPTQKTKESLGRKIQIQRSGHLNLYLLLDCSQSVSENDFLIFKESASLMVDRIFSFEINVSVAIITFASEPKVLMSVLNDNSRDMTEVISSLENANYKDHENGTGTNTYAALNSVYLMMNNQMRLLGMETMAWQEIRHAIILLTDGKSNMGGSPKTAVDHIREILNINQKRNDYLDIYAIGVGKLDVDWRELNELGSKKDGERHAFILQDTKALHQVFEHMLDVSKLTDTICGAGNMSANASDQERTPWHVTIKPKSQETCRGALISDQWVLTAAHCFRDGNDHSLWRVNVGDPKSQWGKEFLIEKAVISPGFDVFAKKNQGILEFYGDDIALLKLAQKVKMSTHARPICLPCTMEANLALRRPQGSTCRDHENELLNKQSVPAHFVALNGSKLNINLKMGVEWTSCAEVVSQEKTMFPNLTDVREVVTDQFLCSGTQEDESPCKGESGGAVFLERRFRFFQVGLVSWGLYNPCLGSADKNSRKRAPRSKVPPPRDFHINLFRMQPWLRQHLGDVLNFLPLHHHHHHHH

human C2 M316A = target: T3, human C2 M316A (human, UniProt P06681 21-752)
T3 sequence: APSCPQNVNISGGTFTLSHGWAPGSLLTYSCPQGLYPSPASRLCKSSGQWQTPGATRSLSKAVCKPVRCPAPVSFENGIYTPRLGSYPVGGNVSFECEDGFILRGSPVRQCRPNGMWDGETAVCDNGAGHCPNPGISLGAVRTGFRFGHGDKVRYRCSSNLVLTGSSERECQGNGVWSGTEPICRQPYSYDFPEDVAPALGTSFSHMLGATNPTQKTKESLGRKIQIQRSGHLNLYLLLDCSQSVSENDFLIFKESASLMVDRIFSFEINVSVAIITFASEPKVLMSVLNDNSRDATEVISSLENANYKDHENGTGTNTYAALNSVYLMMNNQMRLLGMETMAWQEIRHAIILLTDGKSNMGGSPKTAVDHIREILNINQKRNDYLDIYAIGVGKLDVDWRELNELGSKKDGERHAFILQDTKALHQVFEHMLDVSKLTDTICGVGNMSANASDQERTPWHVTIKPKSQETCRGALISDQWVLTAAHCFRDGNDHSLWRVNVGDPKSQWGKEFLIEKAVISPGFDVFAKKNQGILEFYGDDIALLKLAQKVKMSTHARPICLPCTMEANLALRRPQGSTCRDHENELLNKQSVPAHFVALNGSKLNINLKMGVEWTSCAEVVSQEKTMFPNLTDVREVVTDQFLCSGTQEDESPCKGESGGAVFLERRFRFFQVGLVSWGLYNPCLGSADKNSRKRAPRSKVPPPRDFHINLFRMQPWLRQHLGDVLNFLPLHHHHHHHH

human C2 S428A = target: T4, human C2 S428A (human, UniProt P06681 21-752)
T4 sequence: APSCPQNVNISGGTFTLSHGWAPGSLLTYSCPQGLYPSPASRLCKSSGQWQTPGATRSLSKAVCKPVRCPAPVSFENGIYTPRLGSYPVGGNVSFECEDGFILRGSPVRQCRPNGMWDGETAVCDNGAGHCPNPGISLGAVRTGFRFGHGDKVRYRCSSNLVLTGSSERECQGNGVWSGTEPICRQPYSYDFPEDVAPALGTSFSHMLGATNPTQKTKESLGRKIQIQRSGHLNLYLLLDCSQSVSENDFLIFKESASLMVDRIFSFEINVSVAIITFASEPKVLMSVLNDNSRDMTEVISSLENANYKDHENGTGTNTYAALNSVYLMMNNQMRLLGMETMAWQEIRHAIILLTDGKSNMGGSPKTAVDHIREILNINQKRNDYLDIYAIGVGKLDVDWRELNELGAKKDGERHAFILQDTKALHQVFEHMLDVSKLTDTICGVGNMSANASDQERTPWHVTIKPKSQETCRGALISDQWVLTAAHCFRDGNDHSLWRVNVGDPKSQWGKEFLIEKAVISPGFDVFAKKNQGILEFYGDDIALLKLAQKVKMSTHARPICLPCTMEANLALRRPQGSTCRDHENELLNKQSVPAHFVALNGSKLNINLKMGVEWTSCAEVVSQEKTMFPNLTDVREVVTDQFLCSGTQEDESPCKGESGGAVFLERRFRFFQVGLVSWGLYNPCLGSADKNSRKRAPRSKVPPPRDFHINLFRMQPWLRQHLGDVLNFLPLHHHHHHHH

B1: RF16-242 (antibody, human IgG4 S228P, lambda, V domains shown)
VH: EVQLLQSGAEVKKPGESLKISCKGSGYSFTSYWIGWVRQMPGKGLEWMGIIYPGDSDTRYSPSFQGQVTISADKSISTAYLQWSSLKASDTAMYYCARRGHYGDYFDYWGQGTLVTVSS
VL: SYELTQPPSVSVSPGQTARITCSGDALPKKYAYWYHQKSGQAPVLVIYEDRRRPSEIPERFSGSSSGTMATLTITGAQVEDEGVYFCYSRDRAGNQRVFGGGTQLTVLG
notes: pH-dependent anti-C2 antibody from a phage display library
B1 gave a Kd (human C2 S469A) of 21.4 nM, a Kd (human C2 V465A) of 16.3 nM and a Kd (human C2 M316A) of 10.1 nM. The Kd (human C2 S428A) was 18.6 nM.
